Data taken from patent US20060062793A1, “Modified antibodies to prostate-specific membrane antigen and uses thereof” (priority 2004, published 2006).
Residue numbers refer to the chain shown, from its start.

B1: deJ415: deimmunized J415, heavy chain J415DIVH4 combined with light chain J415DIVK5; ATCC PTA-4174 (antibody, V domains shown)
VH: EVKLEESGGGLVQPGGSMKISCVASGFTFSNYWMNWVRQSPEKGLEWVAEIRSQSNNFATHYAESVKGRVIISRDDSKSSVYLQMNSLRAEDTAVYYCTRRWNNFWGQGTTVTVSS
VL: NIVMTQFPKSMSASAGERMTLTCKASENVGTYVSWYQQKPTQSPKMLIYGASNRFTGVPDRFSGSGSGTDFILTISSVQAEDLVDYYCGQSYTFPYTFGGGTKLEMK
B2: J415: murine monoclonal antibody to human PSMA; hybridoma ATCC HB-12109 (antibody, V domains shown)
VH: B1 VH with I20L, S87N, A94G, V95I, V112L
VL: B1 VL with A13I, A15V, M19V, T41E, S63T, G68A, A80T

Columns and labels:
[1] = test system: LNCap membrane preparation; assay: ELISA for binding of J415 deimmunized antibodies to LNCap membrane preparation; design: species or system human
Method: The J415 deimmunized antibodies (including various combinations of the deimmunized light chain and heavy chain subunits) were tested in an ELISA for binding to LNCap membrane preparation following the protocol as detailed above. ELISA plates were coated with LNCap membrane preparation and blocked with 5% BSA in phosphate buffered saline. Doubling dilutions of the J415 chimeric antibody (murine variable heavy and light chain regions fused to human constant heavy and light chain regions, respectively) and the deimmunized antibodies were applied. Detection was with horseradish peroxidase conjugated goat anti-human IgG and donkey anti-mouse for chimeric and mouse antibodies respectively. Color was developed with o-phenylene diamine substrate.

[2] = test system: PSMA-positive human LNCaP tumors; assay: Biodistribution of 111In labeled MAbs in nude mice bearing LNCaP tumors; format: in vivo, mouse
Method: Prior to use, the cells were trypsinized, counted and suspended in Matrigel (Collaborative Biomedical Products, Bedford, Mass.). Nu/Nu Balb C mice 8-10 weeks of age were inoculated, in the right and left flanks, with a suspension of 5×10^6 LNCaP cells in Matrigel (BD Biosciences, Bedford Mass.). After a period of 14-18 days, tumors (100-300 mg) had developed. The PSMA-negative DU145 and PC3 cells were implanted in nude mice in an identical manner.
The PSMA-positive and PSMA-negative tumor bearing mice were injected, via the tail vein, with 80 KBq of the iodinated MAb (400 MBq/mg) in 200 μL of PBS (pH 7.4, 0.2% BSA). Groups of animals (3-8/group) were sacrificed after 2, 4 or 6 days. The major organs and tumors were recovered. The tissue samples were weighed and counted, with appropriate standards in an automatic NaI(Tl) counter. These measured relative activity data (cpm) were background corrected and expressed as a percentage of the injected dose per gram (% ID/g). […] J415, J591 and 7E11 were labeled with ^111In (100 MBq/mg). 80 KBq of the ^111In labeled MAbs were injected in groups of animals. The % ID/g in various organs and tumor tissues was determined at 2-6 days post injection in a similar way as described for ^131I labeled MAbs.

LNCaP tumor sections = format: in vivo, mouse; details: 131I-labeled, 4 to 6 days after intravenous injection
Text: For several animals (n=20), harvested tumor samples were immediately cooled in liquid nitrogen and frozen in embedding medium (O.C.T. 4583, Sakura Finetec, Torrance Calif.). Twenty micron sections were cut and the tumor sections were either fixed with acetone and placed in direct contact with a sheet of photographic film (Biomax, Kodak, Rochester, N.Y.) or stained with hematoxin/eosin prior to exposure of the film. Tumors from control animals were collected and cut into 10 μm sections. […] Non-specific binding was determined in the presence of 100 nM J591 MAb. These sections were then washed 3 times with PBS (containing 0.2% BSA) and once with Tris buffer prior to being fixed with acetone and then exposed to photographic film.

Molecule	binding to LNCap cells as compared to the chimeric antibody [1]	kinetics of blood clearance [2]	tumor uptake over time [2]	tumor/blood ratios [2]	intra-tumoral distribution pattern (LNCaP tumor sections)
B1	equivalent binding	–	–	–	–
B2	–	faster compared to 7E11	gradually increased with time and is quite similar to that of 7E11	significantly higher compared to that of 7E11	distinct preferential accumulation in areas of viable tumor
